According to paper PMC4011162, “A gene horizontally transferred from bacteria protects arthropods from host plant cyanide poisoning” (eLife, 2014):

B1: Tu-CAS (Tetranychus urticae) (protein)
chain: MTESTVDRINGITPSALDLIGNTPLIALDRLWPGPGRLLAKCEFLNPTASLKDRSSYYMIAKAKESGQLKDGESVIEVTSGNQGGGIACVTAVMGHPFTVTMSKGNSPQRAIMMNALGANVILVDQVTGKPGNVTADDVAAAEETAMKIREETNAYYVDQFNNPTNCLAHYETTGPEIWRQTNGRIDAFLVGCGTGGCFVGTSKFLKEKNPNVRCFVVEPEGCQPIAGCTITKPLHLLQGSGYGCVPTLFDKKVYNDSISVSDEEAIEYRKLLGQKEGLFCGFTTGGNIAAAIKLLKSGQLPKDAWVVTILCDSGLKYPE
notes: tag removal not mentioned; PLP-dependent, predicted cytosolic

Key:
Tu-CAS = target: T1, Tu-CAS (Tetranychus urticae, UniProt T1KF23); assay: cofactor dependence of enzymatic activity; assay type: biochemical; conditions: 500 µM pyridoxal-5'-phosphate in assay; Schiff base lysine conserved by sequence
T1 construct: gene 107363798; tag removal not mentioned; PLP-dependent, predicted cytosolic
T1 sequence (T1KF23 1-320): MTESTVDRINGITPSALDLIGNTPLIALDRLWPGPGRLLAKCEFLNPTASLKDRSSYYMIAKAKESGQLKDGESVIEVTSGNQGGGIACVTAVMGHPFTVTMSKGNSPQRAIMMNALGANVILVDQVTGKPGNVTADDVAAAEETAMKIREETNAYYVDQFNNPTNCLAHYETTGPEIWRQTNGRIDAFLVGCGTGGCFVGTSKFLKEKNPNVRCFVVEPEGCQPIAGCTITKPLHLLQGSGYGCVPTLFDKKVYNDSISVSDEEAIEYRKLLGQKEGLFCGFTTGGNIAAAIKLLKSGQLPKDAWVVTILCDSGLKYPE

purified protein [1] = substrate: CC(=O)OC[C@H](N)C(=O)O; assay: purified protein; conditions: co-substrate sodium sulfide (standard 2 mM); preincubated with 500 µM pyridoxal-5'-phosphate; pH not given
purified protein [2] = substrate: N[C@@H](CS)C(=O)O; assay: purified protein; assay type: biochemical, Tetranychus urticae; conditions: co-substrate sodium cyanide (standard 0.01 M stock), 0.2 M Tris pH 8.5, 37 °C, preincubated with 500 µM pyridoxal-5'-phosphate

Row | Molecule | cofactor dependence of enzymatic activity (Tu-CAS) | Km (purified protein [1]) | kcat/Km (purified protein [1]) | Km (purified protein [2]) | kcat/Km (purified protein [2])
1 | Cc1ncc(COP(=O)(O)O)c(C=O)c1O [pyridoxal-5′-phosphate] | Enzymatic activity was dependent on pyridoxal-5′-phosphate as a cofactor |  |  |  | 
2 | B1 |  | 3170 µM | 203 M⁻¹ s⁻¹ | 312 µM | 6840 M⁻¹ s⁻¹
